The values that follow come from IntAct's records for PubMed 31515488.

B1: Nebulette (Homo sapiens), O76041 (parent)
chain: MRVPVFEDIKDETEEEKIGEEENEEDQVFYKPVIEDLSMELARKCTELISDIRYKEEFKKSKDKCTFVTDSPMLNHVKNIGAFISEAKYKGTIKADLSNSLYKRMPATIDSVFAGEVTQLQSEVAYKQKHDAAKGFSDYAHMKEPPEVKHAMEVNKHQSNISYRKDVQDTHTYSAELDRPDIKMATQISKIISNAEYKKGQGIMNKEPAVIGRPDFEHAVEASKLSSQIKYKEKFDNEMKDKKHHYNPLESASFRQNQLAATLASNVKYKKDIQNMHDPVSDLPNLLFLDHVLKASKMLSGREYKKLFEENKGMYHFDADAVEHLHHKGNAVLQSQVKYKEEYEKNKGKPMLEFVETPSYQASKEAQKMQSEKVYKEDFEKEIKGRSSLDLDKTPEFLHVKYITNLLREKEYKKDLENEIKGKGMELNSEVLDIQRAKRASEMASEKEYKKDLESIIKGKGMQAGTDTLEMQHAKKAAEIASEKDYKRDLETEIKGKGMQVSTDTLDVQRAKKASEMASQKQYKKDLENEIKGKGMQVSMDIPDILRAKRTSEIYSQRKYKDEAEKMLSNYSTIADTPEIQRIKTTQQNISAVFYKKEVGAGTAVKDSPEIERVKKNQQNISSVKYKEEIKHATAISDPPELKRVKENQKNISNLQYKEQNYKATPVSMTPEIERVRRNQEQLSAVKYKGELQRGTAISDPPELKRAKENQKNISNVYYRGQLGRATTLSVTPEMERVKKNQENISSVKYTQDHKQMKGRPSLILDTPAMRHVKEAQNHISMVKYHEDFEKTKGRGFTPVVDDPVTERVRKNTQVVSDAAYKGVHPHIVEMDRRPGIIVDLKVWRTDPGSIFDLDPLEDNIQSRSLHMLSEKASHYRRHWSRSHSSSTFGTGLGDDRSEISEIYPSFSCCSEVTRPSDEGAPVLPGAYQQSHSQGYGYMHQTSVSSMRSMQHSPNLRTYRAMYDYSAQDEDEVSFRDGDYIVNVQPIDDGWMYGTVQRTGRTGMLPANYIEFVN
partner: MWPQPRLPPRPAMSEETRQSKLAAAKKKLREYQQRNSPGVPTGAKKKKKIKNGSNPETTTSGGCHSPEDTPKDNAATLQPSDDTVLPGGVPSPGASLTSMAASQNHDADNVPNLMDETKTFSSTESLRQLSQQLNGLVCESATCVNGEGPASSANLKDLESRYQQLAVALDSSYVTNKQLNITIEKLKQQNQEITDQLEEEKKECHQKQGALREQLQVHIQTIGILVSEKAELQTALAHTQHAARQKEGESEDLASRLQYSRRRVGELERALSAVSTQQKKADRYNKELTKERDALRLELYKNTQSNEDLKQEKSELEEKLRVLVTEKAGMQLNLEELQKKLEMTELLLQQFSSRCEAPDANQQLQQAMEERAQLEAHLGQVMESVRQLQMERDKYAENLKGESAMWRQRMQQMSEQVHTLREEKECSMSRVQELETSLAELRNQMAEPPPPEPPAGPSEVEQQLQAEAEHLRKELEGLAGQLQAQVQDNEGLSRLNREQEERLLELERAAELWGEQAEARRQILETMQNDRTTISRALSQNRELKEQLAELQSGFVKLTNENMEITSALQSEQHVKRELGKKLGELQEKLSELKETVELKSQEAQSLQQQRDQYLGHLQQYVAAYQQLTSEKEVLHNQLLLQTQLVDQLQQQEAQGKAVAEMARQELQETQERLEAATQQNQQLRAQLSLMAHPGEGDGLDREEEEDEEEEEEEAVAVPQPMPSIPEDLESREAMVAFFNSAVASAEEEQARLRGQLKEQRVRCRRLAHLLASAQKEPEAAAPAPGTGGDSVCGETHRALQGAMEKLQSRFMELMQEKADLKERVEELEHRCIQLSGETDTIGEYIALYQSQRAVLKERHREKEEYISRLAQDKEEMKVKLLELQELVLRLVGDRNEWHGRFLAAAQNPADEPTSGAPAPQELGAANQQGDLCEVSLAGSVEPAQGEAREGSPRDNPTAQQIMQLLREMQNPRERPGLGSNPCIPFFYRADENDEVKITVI
B2: Four and a half LIM domains protein 5 (Homo sapiens), Q5TD97 (parent)
chain: MTTAHFYCQYCTASLLGKKYVLKDDSPYCVTCYDRVFSNYCEECKKPIESDSKDLCYKDRHWHEGCFKCTKCNHSLVEKPFAAKDERLLCTECYSNECSSKCFHCKRTIMPGSRKMEFKGNYWHETCFVCENCRQPIGTKPLISKESGNYCVPCFEKEFAHYCNFCKKVITSGGITFCDQLWHKECFLCSGCRKDLCEEQFMSRDDYPFCVDCYNHLYANKCVACSKPISGLTGAKFICFQDSQWHSECFNCGKCSVSLVGKGFLTQNKEIFCQKCGSGMDTDI
partner: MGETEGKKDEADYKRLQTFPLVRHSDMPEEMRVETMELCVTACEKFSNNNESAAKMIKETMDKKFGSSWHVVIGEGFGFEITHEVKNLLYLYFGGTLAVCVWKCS
B3: Ornithine decarboxylase antizyme 3 (Homo sapiens), Q9UMX2 (parent)
chain: MPCKRCRPSVYSLSYIKRGKTRNYLYPIWSPYAYYLYCYKYRITLREKMLPRCYKSITYKEEEDLTLQPRSCLQCSESLVGLQEGKSTEQGNHDQLKELYSAGNLTVLATDPLLHQDPVQLDFHFRLTSQTSAHWHGLLCDRRLFLDIPYQALDQGNRESLTATLEYVEEKTNVDSVFVNFQNDRNDRGALLRAFSYMGFEVVRPDHPALPPLDNVIFMVYPLERDVGHLPSEPP
partner: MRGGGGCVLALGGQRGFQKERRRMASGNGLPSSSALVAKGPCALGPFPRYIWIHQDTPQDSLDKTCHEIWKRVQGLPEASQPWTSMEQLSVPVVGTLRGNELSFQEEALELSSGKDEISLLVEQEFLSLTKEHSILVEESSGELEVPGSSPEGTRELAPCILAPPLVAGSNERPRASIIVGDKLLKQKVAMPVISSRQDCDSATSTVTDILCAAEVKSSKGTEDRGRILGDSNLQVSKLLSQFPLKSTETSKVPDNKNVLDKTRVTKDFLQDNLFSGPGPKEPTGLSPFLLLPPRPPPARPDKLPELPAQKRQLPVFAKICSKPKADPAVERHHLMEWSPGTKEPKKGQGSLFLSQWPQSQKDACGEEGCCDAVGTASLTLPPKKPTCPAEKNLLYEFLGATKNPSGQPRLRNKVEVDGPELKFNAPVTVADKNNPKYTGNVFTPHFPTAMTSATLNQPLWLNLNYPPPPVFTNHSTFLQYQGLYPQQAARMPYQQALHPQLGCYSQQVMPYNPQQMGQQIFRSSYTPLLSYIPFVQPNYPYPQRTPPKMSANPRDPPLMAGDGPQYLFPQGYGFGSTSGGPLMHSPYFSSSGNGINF
B4: Plakophilin-2 (Homo sapiens), Q99959 (parent)
chain: MAAPGAPAEYGYIRTVLGQQILGQLDSSSLALPSEAKLKLAGSSGRGGQTVKSLRIQEQVQQTLARKGRSSVGNGNLHRTSSVPEYVYNLHLVENDFVGGRSPVPKTYDMLKAGTTATYEGRWGRGTAQYSSQKSVEERSLRHPLRRLEISPDSSPERAHYTHSDYQYSQRSQAGHTLHHQESRRAALLVPPRYARSEIVGVSRAGTTSRQRHFDTYHRQYQHGSVSDTVFDSIPANPALLTYPRPGTSRSMGNLLEKENYLTAGLTVGQVRPLVPLQPVTQNRASRSSWHQSSFHSTRTLREAGPSVAVDSSGRRAHLTVGQAAAGGSGNLLTERSTFTDSQLGNADMEMTLERAVSMLEADHMLPSRISAAATFIQHECFQKSEARKRVNQLRGILKLLQLLKVQNEDVQRAVCGALRNLVFEDNDNKLEVAELNGVPRLLQVLKQTRDLETKKQITDHTVNLRSRNGWPGAVAHACNPSTLGGQGGRITRSGVRDQPDQHGLLWNLSSNDKLKNLMITEALLTLTENIIIPFSGWPEGDYPKANGLLDFDIFYNVTGCLRNMSSAGADGRKAMRRCDGLIDSLVHYVRGTIADYQPDDKATENCVCILHNLSYQLEAELPEKYSQNIYIQNRNIQTDNNKSIGCFGSRSRKVKEQYQDVPMPEEKSNPKGVEWLWHSIVIRMYLSLIAKSVRNYTQEASLGALQNLTAGSGPMPTSVAQTVVQKESGLQHTRKMLHVGDPSVKKTAISLLRNLSRNLSLQNEIAKETLPDLVSIIPDTVPSTDLLIETTASACYTLNNIIQNSYQNARDLLNTGGIQKIMAISAGDAYASNKASKAASVLLYSLWAHTELHHAYKKAQFKKTDFVNSRTAKAYHSLKD
B5: E3 ubiquitin-protein ligase MARCHF5 (Homo sapiens), Q9NX47 (parent)
chain: MPDQALQQMLDRSCWVCFATDEDDRTAEWVRPCRCRGSTKWVHQACLQRWVDEKQRGNSTARVACPQCNAEYLIVFPKLGPVVYVLDLADRLISKACPFAAAGIMVGSIYWTAVTYGAVTVMQVVGHKEGLDVMERADPLFLLIGLPTIPVMLILGKMIRWEDYVLRLWRKYSNKLQILNSIFPGIGCPVPRIPAEANPLADHVSATRILCGALVFPTIATIVGKLMFSSVNSNLQRTILGGIAFVAIKGAFKVYFKQQQYLRQAHRKILNYPEQEEA
partner: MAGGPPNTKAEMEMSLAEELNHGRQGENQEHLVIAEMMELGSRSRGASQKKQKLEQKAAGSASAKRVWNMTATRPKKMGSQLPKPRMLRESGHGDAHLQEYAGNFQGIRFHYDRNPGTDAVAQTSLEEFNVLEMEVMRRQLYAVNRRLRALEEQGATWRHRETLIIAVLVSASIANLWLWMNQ

One experiment covers variants of B1. The conditions noted are these: with goga2_human GOLGA2, Q08379.
Regarding R613Q, the “effect of a mutation on the interaction” value is on record as “with no effect”. With M351V, the “effect of a mutation on the interaction” value was “with no effect”.

In another experiment the parent is B2. The conditions noted are these: with dnal4_human DNAL4, O96015.
For the variant D24Y, the “effect of a mutation on the interaction” value is reported as “with no effect”. Turning to R204G, the “effect of a mutation on the interaction” value is “with no effect”. Consider M202L, for which the “effect of a mutation on the interaction” value is recorded as “with no effect”. The same measure, in the same setting: as for R60W, the entry is “with no effect”.

Variants of B3 are the subject of a further experiment. Conditions: with ca094_human C1orf94, Q6P1W5.
As for R193Q, the “effect of a mutation on the interaction” value is on record as “with no effect”.

V174A: the “effect of a mutation on the interaction” value is “disrupting interaction strength”.

In the next experiment the parent is B4. Conditions: with mtus2_human MTUS2, Q5JR59.
Chain of mtus2_human MTUS2, Q5JR59 (Q5JR59 whole entry): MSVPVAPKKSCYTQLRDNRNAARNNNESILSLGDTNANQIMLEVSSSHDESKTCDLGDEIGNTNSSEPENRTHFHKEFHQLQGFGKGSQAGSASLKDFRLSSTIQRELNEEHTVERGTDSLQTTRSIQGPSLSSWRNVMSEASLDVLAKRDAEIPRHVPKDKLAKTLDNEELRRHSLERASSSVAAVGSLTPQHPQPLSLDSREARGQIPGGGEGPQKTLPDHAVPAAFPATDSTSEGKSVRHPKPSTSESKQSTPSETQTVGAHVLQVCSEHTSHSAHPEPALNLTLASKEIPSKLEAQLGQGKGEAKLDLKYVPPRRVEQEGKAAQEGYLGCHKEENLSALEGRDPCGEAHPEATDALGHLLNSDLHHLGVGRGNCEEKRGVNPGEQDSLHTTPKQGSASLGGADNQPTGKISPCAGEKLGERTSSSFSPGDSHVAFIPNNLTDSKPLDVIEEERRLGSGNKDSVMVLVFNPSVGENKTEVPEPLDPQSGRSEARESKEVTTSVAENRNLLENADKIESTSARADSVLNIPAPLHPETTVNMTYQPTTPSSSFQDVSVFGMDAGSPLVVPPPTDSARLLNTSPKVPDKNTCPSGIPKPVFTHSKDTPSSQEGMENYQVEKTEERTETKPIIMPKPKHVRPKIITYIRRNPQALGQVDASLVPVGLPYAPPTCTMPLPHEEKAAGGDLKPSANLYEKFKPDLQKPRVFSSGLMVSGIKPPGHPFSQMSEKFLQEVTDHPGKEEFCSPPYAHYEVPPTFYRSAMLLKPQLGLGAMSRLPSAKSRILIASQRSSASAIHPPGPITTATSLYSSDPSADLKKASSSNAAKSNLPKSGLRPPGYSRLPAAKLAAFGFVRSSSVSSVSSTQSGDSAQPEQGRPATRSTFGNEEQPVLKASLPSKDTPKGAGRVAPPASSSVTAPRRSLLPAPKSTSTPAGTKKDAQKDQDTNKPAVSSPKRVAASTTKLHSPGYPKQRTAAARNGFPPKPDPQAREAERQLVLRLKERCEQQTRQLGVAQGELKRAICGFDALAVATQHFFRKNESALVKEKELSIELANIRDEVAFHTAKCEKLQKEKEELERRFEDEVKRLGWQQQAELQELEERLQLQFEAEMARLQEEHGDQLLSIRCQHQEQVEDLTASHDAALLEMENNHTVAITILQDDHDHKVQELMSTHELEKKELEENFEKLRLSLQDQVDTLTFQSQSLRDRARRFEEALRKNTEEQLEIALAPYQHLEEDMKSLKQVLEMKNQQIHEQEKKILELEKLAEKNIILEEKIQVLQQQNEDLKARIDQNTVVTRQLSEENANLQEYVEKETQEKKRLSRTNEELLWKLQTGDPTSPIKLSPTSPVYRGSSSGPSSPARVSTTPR
For the variant E58D, the “effect of a mutation on the interaction” value was “with no effect”. For the variant L366P, the “effect of a mutation on the interaction” value is “with no effect”. Same read-out and setting: as for A264V, the entry is “with no effect”.

Variants of B5 are the subject of the next experiment. Conditions: with fate1_human FATE1, Q969F0.
Consider D202N, for which the “effect of a mutation on the interaction” value was “with no effect”.
